Measurements reported in US20260258394A1, “PLANT ENZYMES WITH IMPROVED ACTIVITY” (MAX-PLANCK-GESELLSCHAFT ZUR FÖRDERUNG DER WISSENSCHAFTEN …, priority 2023, published 2026).

Experiments:
Assay in all cases: mass photometry of purified protein
[1] = molecular target: T1, GCC M5 (M. extorquens) β-subunit L100S, Y143H, D407I, I450V, W502R mutations (Methylorubrum extorquens)
T1 construct: Engineered β-subunit (carboxyltransferase), forms the β6 core; also called S100S; β6 core of GCC M5
T1 chain: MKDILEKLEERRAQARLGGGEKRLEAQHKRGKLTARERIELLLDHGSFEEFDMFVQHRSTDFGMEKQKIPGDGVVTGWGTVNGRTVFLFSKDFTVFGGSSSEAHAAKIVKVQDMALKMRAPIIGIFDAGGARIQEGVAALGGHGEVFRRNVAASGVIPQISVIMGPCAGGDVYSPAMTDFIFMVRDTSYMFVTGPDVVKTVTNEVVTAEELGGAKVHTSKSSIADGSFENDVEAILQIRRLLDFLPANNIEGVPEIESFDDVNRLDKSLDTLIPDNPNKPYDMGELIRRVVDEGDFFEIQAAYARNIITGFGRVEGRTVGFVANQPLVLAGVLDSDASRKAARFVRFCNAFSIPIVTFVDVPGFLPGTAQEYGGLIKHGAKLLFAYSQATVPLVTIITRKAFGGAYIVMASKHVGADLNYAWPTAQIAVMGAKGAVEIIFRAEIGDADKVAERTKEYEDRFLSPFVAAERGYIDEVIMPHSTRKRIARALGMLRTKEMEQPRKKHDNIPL
Experimental: (§1) Mass photometry (MP) measurements were carried out on microscope coverslips (1.5 H, 24×50 mm, Carl Roth) with CultureWell™ Reusable Gaskets (CW-50R-1.0, 50-3 mm diameter×1 mm depth) that had been washed by three consecutive rinses of water and isopropanol, prior to drying under a stream of pressurized air. Gaskets were assembled on microscope coverslips and placed on the stage of a TwoMP mass photometer (MP, Refeyn Ltd, Oxford, UK) with immersion oil. Measurements were carried out in 1× phosphate-buffered saline (PBS, 10 mM Na₂HPO₄, 1.8 mM KH₂PO₄, 137 mM NaCl, 2.7 mM KCl (pH 7.4)). To this end, 18 μL 1×PBS was used to focus the MP before 2 μL sample (1 μM protein) was added, rapidly mixed, and measured. Shortly before measuring, samples were prepared by diluting purified protein to 1 μM monomer concentration in buffer (50 mM HEPES, pH 7.8, 150 mM KCl), as determined by absorption at 280 nm. Data was acquired for 60 s at 100 frames per second using AcquireMP (Refeyn Ltd, Oxford, UK). MP contrast was calibrated to molecular masses using 50 nM of in-house purified protein mixture containing citrate-synthase complexes of known molecular masses ranging from 86 to 430 kDa. MP datasets were processed and analyzed using DiscoverMP (Refeyn Ltd, Oxford, UK). Details of MP image analysis have been described previously (Sonn-Segev, et al., 2020, Nat Commun 11, 1772).

[2] = molecular target: T2, GCC M5_L100N (M. extorquens) β-subunit L100N, Y143H, D407I, I450V, W502R mutations (Methylorubrum extorquens)
T2 construct: Engineered β-subunit, forms the β6 core; Cryo-EM structure PDB 8PN8; also called S100N; GCC M5 S100N
T2 chain: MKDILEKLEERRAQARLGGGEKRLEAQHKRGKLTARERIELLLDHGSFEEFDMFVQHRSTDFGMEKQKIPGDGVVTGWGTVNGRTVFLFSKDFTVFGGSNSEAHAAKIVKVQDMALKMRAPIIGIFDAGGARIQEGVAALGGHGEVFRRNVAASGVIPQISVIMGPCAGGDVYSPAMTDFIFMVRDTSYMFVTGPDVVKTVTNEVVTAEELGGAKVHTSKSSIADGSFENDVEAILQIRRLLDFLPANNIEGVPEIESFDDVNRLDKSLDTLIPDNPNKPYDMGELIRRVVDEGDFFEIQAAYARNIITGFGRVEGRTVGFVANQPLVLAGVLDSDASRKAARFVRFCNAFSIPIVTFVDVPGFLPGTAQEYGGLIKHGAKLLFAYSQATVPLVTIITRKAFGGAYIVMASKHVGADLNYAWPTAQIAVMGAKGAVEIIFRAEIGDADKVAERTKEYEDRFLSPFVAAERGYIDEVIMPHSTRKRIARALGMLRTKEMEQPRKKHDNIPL
Experimental: as §1

[3] = molecular target: T3, PCC WT (M. extorquens) β-subunit (Methylorubrum extorquens)
T3 construct: Wild-type β-subunit of propionyl-CoA carboxylase, forms the β6 core; also called PCC wildtype; PCC from M. extorquens
T3 chain: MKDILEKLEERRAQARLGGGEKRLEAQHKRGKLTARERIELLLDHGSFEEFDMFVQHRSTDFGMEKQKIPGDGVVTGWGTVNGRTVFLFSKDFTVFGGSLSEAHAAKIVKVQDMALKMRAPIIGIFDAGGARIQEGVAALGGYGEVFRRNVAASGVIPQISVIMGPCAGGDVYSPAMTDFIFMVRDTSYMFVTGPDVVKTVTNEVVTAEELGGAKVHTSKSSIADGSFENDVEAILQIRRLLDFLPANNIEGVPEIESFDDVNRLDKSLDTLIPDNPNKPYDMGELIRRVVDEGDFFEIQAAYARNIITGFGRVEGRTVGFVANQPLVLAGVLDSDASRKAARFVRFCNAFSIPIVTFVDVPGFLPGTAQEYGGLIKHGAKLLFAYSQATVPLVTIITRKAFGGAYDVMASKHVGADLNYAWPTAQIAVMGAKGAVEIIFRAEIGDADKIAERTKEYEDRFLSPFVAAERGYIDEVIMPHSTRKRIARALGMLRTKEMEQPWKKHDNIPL
Experimental: as §1

Measured: binding result

B1: PCC WT (M. extorquens) α-subunit (enzyme)
chain: MFDKILIANRGEIACRIIKTAQKMGIKTVAVYSDADRDAVHVAMADEAVHIGPAPAAQSYLLIEKIIDACKQTGAQAVHPGYGFLSERESFPKALAEAGIVFIGPNPGAIAAMGDKIESKKAAAAAEVSTVPGFLGVIESPEHAVTIADEIGYPVMIKASAGGGGKGMRIAESADEVAEGFARAKSEASSSFGDDRVFVEKFITDPRHIEIQVIGDKHGNVIYLGERECSIQRRNQKVIEEAPSPLLDEETRRKMGEQAVALAKAVNYDSAGTVEFVAGQDKSFYFLEMNTRLQVEHPVTEMITGLDLVELMIRVAAGEKLPLSQDQVKLDGWAVESRVYAEDPTRNFLPSIGRLTTYQPPEEGPLGGAIVRNDTGVEEGGEIAIHYDPMIAKLVTWAPTRLEAIEAQATALDAFAIEGIRHNIPFLATLMAHPRWRDGRLSTGFIKEEFPEGFIAPEPEGPVAHRLAAVAAAIDHKLNIRKRGISGQMRDPSLLTFQRERVVVLSGQRFNVTVDPDGDDLLVTFDDGTTAPVRSAWRPGAPVWSGTVGDQSVAIQVRPLLNGVFLQHAGAAAEARVFTRREAELADLMPVKENAGSGKQLLCPMPGLVKQIMVSEGQEVKNGEPLAIVEAMKMENVLRAERDGTISKIAAKEGDSLAVDAVILEFA
modifications: biotin covalently bound to a lysine (position not given)
notes: Co-expressed with the β-subunit and BirA in E. coli BL21-birA and purified by His-Trap; also called α-subunit of the PCC; GCC M5 α-subunit
binds: all assays above
